# From the supplement of paper PMC10065799, “High-throughput profiling of sequence recognition by tyrosine kinases and SH2 domains using bacterial peptide display” (eLife, 2023)
# Molecular target: MERTK (UniProt Q12866)
# Experiment: phosphorylation enrichment, bacterial display (enrichment ratio); higher = better substrate or ligand; peptides without Tyr show the background
# 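For SH2 binding enrichment of the phosphorylated peptide, bacterial display in this document: peptide library displayed on the E. coli surface as eCPX fusions, selected cells deep-sequenced, score is each peptide's frequency after selection divided by its frequency in the input.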
# 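For phosphorylation enrichment, bacterial display in this document: 11-residue human phosphosite peptides and single-mutation variants displayed on the E. coli surface, counted by deep sequencing, each peptide's frequency after selection divided by its frequency in the unselected input library; frequency after pTyr selection over input frequency; kinase dosed for 20-30% of maximal phosphorylation in three min.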
# Chain of MERTK (Q12866 whole entry, looked up): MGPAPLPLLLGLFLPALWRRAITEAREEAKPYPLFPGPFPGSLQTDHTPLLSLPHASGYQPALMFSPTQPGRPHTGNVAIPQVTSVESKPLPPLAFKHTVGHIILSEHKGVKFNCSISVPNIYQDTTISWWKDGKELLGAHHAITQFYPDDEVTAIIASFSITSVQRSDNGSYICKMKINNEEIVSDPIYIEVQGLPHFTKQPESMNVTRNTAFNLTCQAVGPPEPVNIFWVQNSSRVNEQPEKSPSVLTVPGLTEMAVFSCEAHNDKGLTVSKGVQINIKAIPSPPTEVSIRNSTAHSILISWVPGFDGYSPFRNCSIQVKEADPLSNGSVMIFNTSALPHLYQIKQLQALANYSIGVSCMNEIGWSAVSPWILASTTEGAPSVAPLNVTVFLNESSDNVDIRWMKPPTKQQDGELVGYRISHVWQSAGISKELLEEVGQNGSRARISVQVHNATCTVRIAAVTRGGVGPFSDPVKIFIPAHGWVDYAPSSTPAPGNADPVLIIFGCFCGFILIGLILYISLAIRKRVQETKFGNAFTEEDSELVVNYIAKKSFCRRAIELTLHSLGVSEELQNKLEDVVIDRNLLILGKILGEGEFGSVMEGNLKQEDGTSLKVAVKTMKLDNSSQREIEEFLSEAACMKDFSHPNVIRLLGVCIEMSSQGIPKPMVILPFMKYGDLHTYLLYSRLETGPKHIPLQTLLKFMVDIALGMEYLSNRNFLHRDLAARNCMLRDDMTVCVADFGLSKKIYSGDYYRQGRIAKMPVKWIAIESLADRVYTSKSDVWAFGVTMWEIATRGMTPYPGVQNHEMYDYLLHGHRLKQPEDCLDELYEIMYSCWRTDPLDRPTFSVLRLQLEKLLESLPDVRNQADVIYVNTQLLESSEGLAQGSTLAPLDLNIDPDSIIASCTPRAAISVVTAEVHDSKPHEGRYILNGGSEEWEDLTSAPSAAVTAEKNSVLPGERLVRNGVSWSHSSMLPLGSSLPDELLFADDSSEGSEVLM
row,Sequence,phosphorylation enrichment
1,VVAHHYSFAPD [TNS3_Y601_Q600H],0.593
2,VSNFNYFYHRE [KCNA1_Y413],0.47
3,GESKDYALHAG [SVIL_Y185_V189A],0.36
4,EALDFYGEVRI [PTEN_Y155_T160I],0.494
5,ILCTVYAFKMR [GRM3_Y754_T758M],0.47
6,MKGDFYRFLAE [YWHAG_Y131_YF],0.734
7,LITTLYSGFLG [KCNQ1_Y267_I268S],3.39
8,TAALWYIYLHT [ENG_Y612_S615L],0.516
9,ADARMYGVLLW [PLP1_Y207_P211L],0.544
10,KHCEDYVFSFN [DSC1_Y846_C848F_YF],0.471
11,FGLTLYPNSRE [MEP1A_Y472_V469L],0.385
12,VGQRPYQPLPE [REEP3_Y170],0.406
13,DEEPPHRGPFC [SASH1_Y551_Y551H],0.41
14,VNYGAYINDFK [GLB1_Y488],0.373
15,VMLENYSNLVS [ZFP69_Y109],0.375
16,IGLHAYGDQYR [IDH1_Y135_R132L],0.426
17,PARLEYYENEK [IRS1_Y46],0.547

row,Sequence,phosphorylation enrichment
1,RASSVFTRSTG [CCR5_Y339_Y339F],0.624
2,YGLPRYRWLTH [TSPAN12_Y143],0.492
3,TVLGEYASPKG [CYP24A1_Y407_L409S],0.513
4,KSIEEYLKLVG [RASAL2_Y381],0.372
5,ASMAKYYASEI [ACADSB_Y372],0.731
6,PELINYHQHNF [BTK_Y361_S366F],0.696
7,FTRNYYVWAVL [CYBA_Y88_R90W],3.54
8,NHYKIHNLCAE [PTEN_Y68_Y68H],0.435
9,ELQGTYTSLQQ [KIF3C_Y574_R571Q],0.641
10,YISLIYTNYEV [GSTP1_Y109_A114V],3.93
11,WQQQSYLDLGI [CTNNB1_Y30_S33L],0.511
12,WASQRYGRELR [BAD_Y110_A107S],0.516
13,SVTCTYSPAHN [TP53_Y126_L130H],0.663
14,LGGSPYPSVPV [FGFR1_Y701_G703S],0.614
15,ALAHKCHGGGG [HBB_Y146_Y146C],0.469
16,VLNDAYENLTR [SYNE2_Y3255],0.379

# Molecular target: c-Src SH2
# Experiment: SH2 binding enrichment of the phosphorylated peptide, bacterial display (enrichment ratio); higher = better substrate or ligand; peptides without Tyr show the background
row,Sequence,SH2 binding enrichment
1,VSNFNYFYHRE [KCNA1_Y413],0.795
2,EALDFYGEVRI [PTEN_Y155_T160I],0.499
3,ILCTVYAFKMR [GRM3_Y754_T758M],0.718
4,LITTLYSGFLG [KCNQ1_Y267_I268S],1.44
5,TAALWYIYLHT [ENG_Y612_S615L],0.514
6,ADARMYGVLLW [PLP1_Y207_P211L],0.327
7,KHCEDYVFSFN [DSC1_Y846_C848F_YF],0.55
8,FGLTLYPNSRE [MEP1A_Y472_V469L],0.661
9,VNYGAYINDFK [GLB1_Y488],4.76
10,IGLHAYGDQYR [IDH1_Y135_R132L],0.469
11,PARLEYYENEK [IRS1_Y46],18.6
12,RASSVFTRSTG [CCR5_Y339_Y339F],0.455
13,TVLGEYASPKG [CYP24A1_Y407_L409S],0.596
14,ASMAKYYASEI [ACADSB_Y372],0.575
15,PELINYHQHNF [BTK_Y361_S366F],0.434
16,FTRNYYVWAVL [CYBA_Y88_R90W],0.581
17,NHYKIHNLCAE [PTEN_Y68_Y68H],0.554
18,ELQGTYTSLQQ [KIF3C_Y574_R571Q],1.9
19,YISLIYTNYEV [GSTP1_Y109_A114V],1.16
20,WQQQSYLDLGI [CTNNB1_Y30_S33L],0.607
21,WASQRYGRELR [BAD_Y110_A107S],0.324
22,LGGSPYPSVPV [FGFR1_Y701_G703S],0.476
23,ALAHKCHGGGG [HBB_Y146_Y146C],0.538

# The remaining lines, values ahead:
row,SH2 binding enrichment,Sequence
1,2.22,VVAHHYSFAPD [TNS3_Y601_Q600H]
2,0.521,GESKDYALHAG [SVIL_Y185_V189A]
3,0.479,MKGDFYRFLAE [YWHAG_Y131_YF]
4,0.534,VGQRPYQPLPE [REEP3_Y170]
5,0.744,DEEPPHRGPFC [SASH1_Y551_Y551H]
6,0.669,VMLENYSNLVS [ZFP69_Y109]
7,0.404,YGLPRYRWLTH [TSPAN12_Y143]
8,0.441,KSIEEYLKLVG [RASAL2_Y381]
9,0.367,SVTCTYSPAHN [TP53_Y126_L130H]
10,2.25,VLNDAYENLTR [SYNE2_Y3255]

# Molecular target: SHP2-C SH2
# Experiment: as above
row,Sequence,SH2 binding enrichment
1,VSNFNYFYHRE [KCNA1_Y413],1.9
2,EALDFYGEVRI [PTEN_Y155_T160I],0.567
3,ILCTVYAFKMR [GRM3_Y754_T758M],1.1
4,LITTLYSGFLG [KCNQ1_Y267_I268S],1.56
5,TAALWYIYLHT [ENG_Y612_S615L],0.52
6,ADARMYGVLLW [PLP1_Y207_P211L],0.519
7,KHCEDYVFSFN [DSC1_Y846_C848F_YF],0.817
8,FGLTLYPNSRE [MEP1A_Y472_V469L],0.893
9,VNYGAYINDFK [GLB1_Y488],0.88
10,IGLHAYGDQYR [IDH1_Y135_R132L],0.599
11,PARLEYYENEK [IRS1_Y46],1.35
12,RASSVFTRSTG [CCR5_Y339_Y339F],0.778
13,TVLGEYASPKG [CYP24A1_Y407_L409S],0.793
14,ASMAKYYASEI [ACADSB_Y372],0.554
15,PELINYHQHNF [BTK_Y361_S366F],0.716
16,FTRNYYVWAVL [CYBA_Y88_R90W],1.11
17,NHYKIHNLCAE [PTEN_Y68_Y68H],1.02
18,ELQGTYTSLQQ [KIF3C_Y574_R571Q],1.63
19,YISLIYTNYEV [GSTP1_Y109_A114V],1.5
20,WQQQSYLDLGI [CTNNB1_Y30_S33L],0.766
21,WASQRYGRELR [BAD_Y110_A107S],0.504
22,LGGSPYPSVPV [FGFR1_Y701_G703S],0.608
23,ALAHKCHGGGG [HBB_Y146_Y146C],0.761

# Continued, values first:
row,SH2 binding enrichment,Sequence
1,1.43,VVAHHYSFAPD [TNS3_Y601_Q600H]
2,0.739,GESKDYALHAG [SVIL_Y185_V189A]
3,0.36,MKGDFYRFLAE [YWHAG_Y131_YF]
4,0.798,VGQRPYQPLPE [REEP3_Y170]
5,0.895,DEEPPHRGPFC [SASH1_Y551_Y551H]
6,0.555,VMLENYSNLVS [ZFP69_Y109]
7,0.723,YGLPRYRWLTH [TSPAN12_Y143]
8,1.03,KSIEEYLKLVG [RASAL2_Y381]
9,0.605,SVTCTYSPAHN [TP53_Y126_L130H]
10,0.917,VLNDAYENLTR [SYNE2_Y3255]

# Molecular target: Grb2 SH2 (UniProt P62993)
# Experiment: as above
row,Sequence,SH2 binding enrichment
1,VSNFNYFYHRE [KCNA1_Y413],1.07
2,EALDFYGEVRI [PTEN_Y155_T160I],1.09
3,ILCTVYAFKMR [GRM3_Y754_T758M],0.979
4,LITTLYSGFLG [KCNQ1_Y267_I268S],1.54
5,TAALWYIYLHT [ENG_Y612_S615L],0.989
6,ADARMYGVLLW [PLP1_Y207_P211L],0.573
7,KHCEDYVFSFN [DSC1_Y846_C848F_YF],0.941
8,FGLTLYPNSRE [MEP1A_Y472_V469L],1.12
9,VNYGAYINDFK [GLB1_Y488],10.3
10,IGLHAYGDQYR [IDH1_Y135_R132L],0.847
11,PARLEYYENEK [IRS1_Y46],3.84
12,RASSVFTRSTG [CCR5_Y339_Y339F],0.644
13,TVLGEYASPKG [CYP24A1_Y407_L409S],1.02
14,ASMAKYYASEI [ACADSB_Y372],0.849
15,PELINYHQHNF [BTK_Y361_S366F],1.03
16,FTRNYYVWAVL [CYBA_Y88_R90W],1.04
17,NHYKIHNLCAE [PTEN_Y68_Y68H],1.08
18,ELQGTYTSLQQ [KIF3C_Y574_R571Q],0.827
19,YISLIYTNYEV [GSTP1_Y109_A114V],1.18
20,WQQQSYLDLGI [CTNNB1_Y30_S33L],1.03
21,WASQRYGRELR [BAD_Y110_A107S],0.861
22,LGGSPYPSVPV [FGFR1_Y701_G703S],0.915
23,ALAHKCHGGGG [HBB_Y146_Y146C],0.829

# The next lines start with the values.
row,SH2 binding enrichment,Sequence
1,0.781,VVAHHYSFAPD [TNS3_Y601_Q600H]
2,0.78,GESKDYALHAG [SVIL_Y185_V189A]
3,0.706,MKGDFYRFLAE [YWHAG_Y131_YF]
4,1.01,VGQRPYQPLPE [REEP3_Y170]
5,1.03,DEEPPHRGPFC [SASH1_Y551_Y551H]
6,0.851,VMLENYSNLVS [ZFP69_Y109]
7,0.797,YGLPRYRWLTH [TSPAN12_Y143]
8,0.673,KSIEEYLKLVG [RASAL2_Y381]
9,0.644,SVTCTYSPAHN [TP53_Y126_L130H]
10,3.35,VLNDAYENLTR [SYNE2_Y3255]
